Test results from patent US20220177583A1 (University of California, published 2022).

How the values were obtained:
[1] = biological target: T1, human CLDN6, endogenously expressed on cancer cell lines (human, UniProt P56747 1-220); assay: FACS dose curve, labelled mAb, ARK2 cells
T1 construct: also called Endogenous CLDN6+; CLDN6 on ARK2, OVCA429, UMUC4 cells
T1 sequence: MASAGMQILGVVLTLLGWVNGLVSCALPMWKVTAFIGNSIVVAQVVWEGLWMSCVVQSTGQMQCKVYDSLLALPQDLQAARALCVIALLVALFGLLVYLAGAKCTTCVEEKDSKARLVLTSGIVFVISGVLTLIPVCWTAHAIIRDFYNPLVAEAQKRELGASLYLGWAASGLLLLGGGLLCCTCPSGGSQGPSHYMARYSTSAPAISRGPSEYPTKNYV

[2] = biological target: T1, human CLDN6, endogenously expressed on …; assay: FACS dose curve, labelled mAb, OVCA429 cells
[3] = biological target: T2, CLDN4-GFP expressed on engineered HEK293T cells (human, UniProt O14493 1-209); assay: FACS dose curve, labelled mAb, HEK293T CLDN4-mGFP cells
T2 construct: whole, on cells; also called HEK293T CLDN4-mGFP; Artificial CLDN4+; not shown: GFP tag
T2 sequence (looked up): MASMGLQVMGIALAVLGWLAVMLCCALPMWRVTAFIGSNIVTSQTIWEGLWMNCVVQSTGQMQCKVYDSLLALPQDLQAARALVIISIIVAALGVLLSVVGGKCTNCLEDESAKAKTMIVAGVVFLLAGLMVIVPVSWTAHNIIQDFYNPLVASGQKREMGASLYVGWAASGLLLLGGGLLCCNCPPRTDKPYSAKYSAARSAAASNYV

[4] = biological target: T3, CLDN9-GFP expressed on engineered HEK293T cells (human, UniProt O95484 1-217); assay: FACS dose curve, labelled mAb, HEK293T CLDN9-mGFP cells
T3 construct: whole, on cells; also called HEK293T CLDN9-mGFP; Artificial CLDN9+; not shown: GFP tag
T3 sequence (looked up): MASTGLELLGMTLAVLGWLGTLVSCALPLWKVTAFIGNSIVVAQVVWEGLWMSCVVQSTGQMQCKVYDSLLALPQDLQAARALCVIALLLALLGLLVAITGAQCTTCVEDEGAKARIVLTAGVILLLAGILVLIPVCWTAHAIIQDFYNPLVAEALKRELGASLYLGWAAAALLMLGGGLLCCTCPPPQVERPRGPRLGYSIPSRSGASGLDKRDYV

[5] = biological target: T4, mouse CLDN6 fused to GFP, expressed on engineered HEK293T cells (mouse, UniProt Q9Z262 1-219); assay: FACS dose curve, labelled mAb, HEK293T-CLDN6-mGFP (mouse) cells
T4 construct: whole, on cells; also called HEK293T-CLDN6-mGFP Artificial CLDN6+ (mouse); murine CLDN6; not shown: GFP tag
T4 sequence (looked up): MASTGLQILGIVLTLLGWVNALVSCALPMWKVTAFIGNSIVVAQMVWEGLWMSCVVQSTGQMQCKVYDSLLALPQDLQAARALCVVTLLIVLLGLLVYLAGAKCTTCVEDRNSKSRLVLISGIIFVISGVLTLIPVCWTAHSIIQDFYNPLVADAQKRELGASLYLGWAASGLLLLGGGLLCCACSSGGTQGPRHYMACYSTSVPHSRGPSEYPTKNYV

Row | Binder | EC50 [1] | EC50 [2] | EC50 [3] | EC50 [4] | EC50 [5]
1 | AB7 (antibody, V domains shown, Full-length IgG (ExpiCHO)) VH: EVQLQQSGPELVKPGASMKISCKASGYSFTGYTMNWVKQSHGKNLEWIGLINPYNGGTNYNQKFKGKATLTVDKSSSTAYMELLSLTSEDSAVYYCARGVYDYDGFTYWGQGTLVTVSA VL: QIVLTQSPAIMSASLGDRVTMTCTASSSVSSSYLHWYQQKPGSSPKLWIYSTSNLASGVPARFSGSGSGTSYSLTISSMEAEDAATYYCHQYHRSPPTFGSGTKLEIK | 353 nM | 531 nM | 2090 nM | 1940 nM | 1550 nM
2 | AB8 (antibody, V domains shown, Full-length IgG (ExpiCHO)) VH: QVQLQQSGAELARPGASVKMSCKASGYTFTTYTMHWLKQRPGQGLEWIGYINPRSGYSNYNQKFKDKATLTADKSSNTAYMQLNTLTSEDSKVYYCSRGELGGFAYWGQGTLVTVSA VL: DVVMTQTPLSLPVSLGDQASISCRSSQSLVHSDGNTYLYWYLQKPGQSPKLLIYKVSNRFSGVPDRFSGSGSGTDFTLKISRVEAEDLGVYFCSQSTHVPYTFGGGTKLEIK | 1140 nM | 1090 nM | ≥ 5000 nM | 2770 nM | ≥ 5000 nM
3 | AB11 (antibody, V domains shown, Full-length IgG (ExpiCHO)) VH: DVQLVESGGGLVQPRGSRKLSCAASGFTFSSFGMHWVRQAPEKGLEWVAYISSDSRTIYYADTVKGRFTISRDNPTNTLFLQMTSLRSEDTAMYYCARDYGRTYEAYWGQGTLVTVSA VL: DIVLTQSPASLAVSLGQRATISCRASKSVSTSGYSYIHWYQQKPGQPPKLLIYLASNLESGVPARFSGSGSGTDFTLNIHPVEEEDAATYYCQHSRELPLTFGAGTKLELK | 363 nM | 835 nM | 2240 nM | – | 2380 nM
4 | AB15 (antibody, V domains shown, Full-length IgG (ExpiCHO)) VH: DVQLVESGGGLVQPRGSRKLSCAASGFTFSSFGMHWVRQAPEKGLEWVAYISSDSRTIYYADTVKGRFTISRDNPTNTLFLQMTSLRSEDTAMYYCARDYGRTYEAYWGQGTLVTVSA VL: NIMMTQSPSSLAVSAGEKVTMSCKSSQSVLFSSNQKNYLAWYQQKPGQSPRLLIYWASTRESGVPDRFTGSGSGTDFTLTISNVQAEDLAVYYCHQYLSSRTFGAGTKLELK | – | – | ≥ 5000 nM | – | ≥ 5000 nM
5 | AB6 (antibody, V domains shown, Full-length IgG (ExpiCHO)) VH: DVQLQESGPGLVKSSQSLSLTCSVTGYSITSGYYWKWIRQFPGNKLEWMGYISYDGGINYNPSLKNRISITRDTSKNQFFLKLNSVTTEDTAKYYCARFGKGAMDYWGQGTSVTVSS VL: AIVMFQSPSSLVVSAGEKVTMSCKSSQSLLNSRTRKNYLAWYQQKPGQSPKLLIYWASTRESGVPDRFTGSGSGTDFTLTISSVQAEDLAVYYCKQSYYLYTFGGGTKLEIK | 765 nM | 394 nM | 26 nM | 2770 nM | 2220 nM
6 | AB12 (antibody, V domains shown, Full-length IgG (ExpiCHO)) VH: EVKLMESGGDLVKPGGSLKLSCAASGFTFSSYAMSWVRQTPEKRLEWVASIRSGGTTYYPDSVKGRFTISRDNARNILYLRMSSLRSEDTAIYYCAKVGGNPYPMDYWGQGTSVTVSS VL: DIQMIQSPSSMFASLGDRVSLSCRASQDIGGNLDWYQQKPGGTIKLLIYSTSNLNSGVPSRFSGSGSGSDYSLTITSLESEDFADYYCLQRNAYPLTFGAGTKLELK | 1300 nM | 2290 nM | 2090 nM | 2470 nM | –
